Laboratory results taken from IntAct's records for PubMed 19415799.

B1: Cell division protein FtsZ (Escherichia coli (strain K12)), P0A9A6 (parent)
chain: MFEPMELTNDAVIKVIGVGGGGGNAVEHMVRERIEGVEFFAVNTDAQALRKTAVGQTIQIGSGITKGLGAGANPEVGRNAADEDRDALRAALEGADMVFIAAGMGGGTGTGAAPVVAEVAKDLGILTVAVVTKPFNFEGKKRMAFAEQGITELSKHVDSLITIPNDKLLKVLGRGISLLDAFGAANDVLKGAVQGIAELITRPGLMNVDFADVRTVMSEMGYAMMGSGVASGEDRAEEAAEMAISSPLLEDIDLSGARGVLVNITAGFDLRLDEFETVGNTIRAFASDNATVVIGTSLDPDMNDELRVTVVATGIGMDKRPEITLVTNKQVQQPVMDRYQQHGMAPLTQEQKPVAKVVNDNAPQTAKEPDYLDIPAFLRKQAD
partner: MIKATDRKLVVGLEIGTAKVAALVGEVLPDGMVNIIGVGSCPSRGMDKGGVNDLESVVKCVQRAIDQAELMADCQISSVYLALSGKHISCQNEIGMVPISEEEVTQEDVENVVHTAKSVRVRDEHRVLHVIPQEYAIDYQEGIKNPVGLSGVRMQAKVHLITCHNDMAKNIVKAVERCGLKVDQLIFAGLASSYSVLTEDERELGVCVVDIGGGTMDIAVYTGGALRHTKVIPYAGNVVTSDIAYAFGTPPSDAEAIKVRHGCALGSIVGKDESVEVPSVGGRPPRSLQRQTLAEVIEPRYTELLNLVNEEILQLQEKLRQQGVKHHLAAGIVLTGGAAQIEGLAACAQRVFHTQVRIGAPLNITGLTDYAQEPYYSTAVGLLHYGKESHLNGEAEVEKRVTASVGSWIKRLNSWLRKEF

Variants of: B1
Settings: with ftsa_ecoli ftsA

| Variant | effect of a mutation on the interaction |
| --- | --- |
| I374V | decreasing interaction strength |
